Positions count from the first letter of the chain named.
B1: anti-OX40 clone 8H9, Fab (Fab, V domains shown)
VH: QVQLVQSGAEVKKPGSSVKVSCKASGGTFSSYAISWVRQAPGQGLEWMGGIIPIFGTANYAQKFQGRVTITADKSTSTAYMELSSLRSEDTAVYYCAREYGWMDYWGQGTTVTVSS
VL: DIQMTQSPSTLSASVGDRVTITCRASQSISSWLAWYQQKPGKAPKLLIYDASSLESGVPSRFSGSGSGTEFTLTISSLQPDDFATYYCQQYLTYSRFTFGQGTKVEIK
notes: Flag-tagged Fab in bacterial supernatant (phage library DP88-4); also called OX40(8H9)
B2: anti-OX40 clone 1G4, Fab (Fab, V domains shown)
VH: B1 VH with W102S
VL: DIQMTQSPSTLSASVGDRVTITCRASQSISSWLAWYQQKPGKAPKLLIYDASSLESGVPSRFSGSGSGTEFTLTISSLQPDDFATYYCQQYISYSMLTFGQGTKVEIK
notes: Flag-tagged Fab in bacterial supernatant (phage library DP88-4); also called OX40(1G4)
B3: anti-OX40 clone 20B7, Fab (Fab, V domains shown)
VH: QVQLVQSGAEVKKPGSSVKVSCKASGGTFSSYAISWVRQAPGQGLEWMGGIIPIFGTANYAQKFQGRVTITADKSTSTAYMELSSLRSEDTAVYYCARVNYPYSYWGDFDYWGQGTTVTVSS
VL: DIQMTQSPSTLSASVGDRVTITCRASQSISSWLAWYQQKPGKAPKLLIYDASSLESGVPSRFSGSGSGTEFTLTISSLQPDDFATYYCQQYQAFSLTFGQGTKVEIK
notes: Flag-tagged Fab in bacterial supernatant (phage library DP88-4); also called OX40(20B7)
B4: anti-OX40 clone 49B4, Fab (Fab, V domains shown)
VH: QVQLVQSGAEVKKPGSSVKVSCKASGGTFSSYAISWVRQAPGQGLEWMGGIIPIFGTANYAQKFQGRVTITADKSTSTAYMELSSLRSEDTAVYYCAREYYRGPYDYWGQGTTVTVSS
VL: B3 VL with Q92S, A93S, F94Q, S95P, L96Y
notes: Flag-tagged Fab in bacterial supernatant (phage library DP88-4); also called OX40(49B4)
B5: anti-OX40 clone 17A9, Fab (Fab, V domains shown)
VH: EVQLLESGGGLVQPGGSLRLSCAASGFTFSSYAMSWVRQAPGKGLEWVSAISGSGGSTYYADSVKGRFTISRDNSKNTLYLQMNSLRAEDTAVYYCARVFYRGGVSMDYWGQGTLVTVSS
VL: SSELTQDPAVSVALGQTVRITCQGDSLRSYYASWYQQKPGQAPVLVIYGKNNRPSGIPDRFSGSSSGNTASLTITGAQAEDEADYYCNSRVMPHNRVFGGGTKLTV
notes: Flag-tagged Fab in bacterial supernatant (phage library lambda-DP47); also called OX40(17A9)
B6: 49B4/TnC 18D4 P329GLALA 4 + 1 (ID7745) (bispecific antibody, human IgG1, kappa, L234A L235A)
heavy 1: not shown
heavy 2: not shown
light: DIQMTQSPSTLSASVGDRVTITCRASQSISSWLAWYQQKPGKAPKLLIYDASSLESGVPSRFSGSGSGTEFTLTISSLQPDDFATYYCQQYSSQPYTFGQGTKVEIKRTVAAPSVFIFPPSDEQLKSGTASVVCLLNNFYPREAKVQWKVDNALQSGNSQESVTEQDSKDSTYSLSSTLTLSKADYEKHKVYACEVTHQGLSSPVTKSFNRGEC

These binders were tested against T1, human OX40 Fc(kih), monomeric Fc-linked human OX40 antigen ECD (human, UniProt P0DOX5 223-449 = IgG part) (assay: ELISA, Fab-containing bacterial supernatants on biotinylated human OX40 on neutravidin plates, anti-Flag/HRP detection).
T1 construct: Heterodimer of one OX40 ECD (aa 29-214)-AcTEV-Fc knob-Avi chain and one Fc hole chain; Biotinylated at the Avi tag for phage selection and ELISA; also called recombinant OX40 Fc (kih) receptor; biotinylated human OX40
Protocol: Selections were carried out over 3 or 4 rounds using constant antigen concentrations of 100 nM. […] In rounds 2 and 4, in order to avoid enrichment of binders to neutravidin, capture of antigen: phage complexes was performed by addition of 5.4×10⁷ streptavidin-coated magnetic beads. […] Fab-containing bacterial supernatants were added and binding Fabs were detected via their Flag-tags using an anti-Flag/HRP secondary antibody. […] They were bacterially expressed in a 0.5 liter culture volume, affinity purified and further characterized by SPR-analysis using BioRad's ProteOn XPR36 biosensor.

Row | Binder | binding result
1 | B1 | binds
2 | B2 | binds
3 | B3 | binds
4 | B4 | binds
5 | B5 | binds

Each binder was assayed against T1, human OX40 Fc(kih), monomeric Fc-linked … (assay: SPR (Biacore T200, 25 °C): bispecific held on immobilised human TnC; human OX40 Fc(kih) at 250 nM injected for 90 s as analyte 2).
Protocol: All SPR experiments were performed on a Biacore T200 at 25° C. with HBS-EP as running buffer (0.01 M HEPES pH 7.4, 0.15 M NaCl, 3 mM EDTA, 0.005% Surfactant P20, Biacore, Freiburg/Germany).
Biotinylated human TnC was directly coupled to a flow cell of a streptavidin (SA) sensor chip. Immobilization levels up to 1000 resonance units (RU) were used.
Bulk refractive index differences were corrected for by subtracting the response obtained in a reference flow cell, where no protein was immobilized.

Row | Binder | binding result
6 | B6 | binds

Source: US20200277392A1 (Hoffmann-La Roche, published 2020)
